test: soluble on expression in E. coli; label from the status in PepcDB or PDB records

Soluble on expression in E. coli, not soluble:
MGSDKIHHHHHHMITIKEYVVPKSLDEAYELLISRKNNIILGGCGFLKLGSKNIGSAIDLKDLALDYINETDDSILIGADTSLRTLELNKVIKNYCNGVISNAVSNIVGVQFRSGARVGASVFAKYGFSDLIPSLLVVDAKVKLYKKGVMNLADFLENELEKDILIEVILPKKDAIGVFDSIRKCTGDFAVLNGAMLKEGSIYKIAIGARPRRAKIAYKASEILSLENDIEKAGEVSSEELSFGSNIRGSKEYRKDMAKALVVRMYNSIGGECDGK
MGSDKIHHHHHHMITTEAWVLYAGPEQTKKHAPVPGELRRETFQFAGLEDDEALVEPLYGSWEANLDHALSRNPVDICRQRGEEKIVLGNGALVRVVDRGRGAKHPEIGEICMVMPFGKRDQYGFAELVYAYDAPGTIGVMARRTKIRADNLVPVPKGSRHSLLQWATYGRYFTAWDNWKVASKCWRAQLPDVDPADYLVFGWGGGTTLAELQLAKREGFRVAMTASGDKRLADIEKLGITPVDRRRFPHLAYDEERYRSDPEYQAHYRASESAFAEIIGELSGGRGVAIFLDNLGGALYRATMRVIGRTGIVATVGWKTGMRLWNLRATECINRRLHIHTHAWRYDDSEAIRDFQESSDWVGPEPTEIYGFDDVPALASDYVNGKIKTYFPLYQVNPV
MGSDKIHHHHHHMITVVGGTFSKLHKGHKALLEKAIETGNEIVIGLTSDEYVKRNKVYPAIPYKERYRNLYNYMVKKTNKFRIRPIDDRNGNAPYERDYEIIVVSPETYQRSLKINEIRIQNGLPPLKIIRVPYVLAEDLFPISSTRIINGEIDGNGRRLKPVKVAIATNNSAKLKATNDFFHKLMKNFDVIQNTDYKLETQQPFGEVTMNMATKRAMQSLGDNDYAIGIESGIVYERFSRKYFDFHYCVVIDRFGNVTRGSSSGFEVPDRIIDLIKRDMSFSQAYGKVIDTNGIDDSTGIVGKISNGRVRRYDLIMECIRNAFIPRFDPDFYDTTYTPP
MGSDKIHHHHHHMIVDNDLISIQEARILAENAGRAQRVLATFSQEQLDEIVEAVAEAVGAQAQALADMAYEETDYGNPHDKAVKNRFVCTQVREQLRGMRCVGVIGRDEHARTMDIGVPVGVIAALCPATSPVSTTICKTLIAVKSGNAVVFSPHPRAARSIAAALDIMIDAARAHGLPEGCLSYMSTVTKSGTAELMNHPATSLVMLSGVPGMIGLARCSGKPVIYGGTGNGPAFVERSADIRRAVADIMLSKTFDNGIAPSAEQSIVVDSCIEREVRHALQECGAYFMTDEESLRLAELLFCADGRHKAGMVGVSAPVLARRAGISVPDNVRLLVAERKYVSEADPYSRELLSPVLAYYVEDDWMHACEKCIELLLHERNAHTLVIHSSNEEVILQFALKKPVGRLLVNTPATFGGMGVTTNLFPSMTLGSGSAGRGITADNVSPMNLIYIRKVGYGVRQYTGAQDAAGYGSRVCAAQGVMAPHDSDSRKMQALHRILMEAIGVMDGAAHR
MGSDKIHHHHHHMIVINMFSSANKVAGQGVGAVYTELMGLLKHDFSNEFEVNVNRYTRSDISHYHTIDPKFYLSTFSKKRGRKIGFVHFVPSTLDASLKLPRVARWTLDKYTLAFYKRMDQLVVVNPNFIPKLEAYGISRDKVTYIPNFVSQRTFHPVSTEKRQALRHANGFKPDDFVIFGAGQVQDRKGVSDFIKLAKQNPEFRFVWAGGFSFGRITEGYDHLKKAVAEAPANLDFTGIMPRETMIDYYNMADVFLLPSYEELFPMSVLEAFATGTPVMVRDLELYHQIITPYAITAVDVDDMQSRLRALADDHDLLATYATKSRQAAEVYDESRLEKVWHDFYLHQAALGKH
MGSDKIHHHHHHMIYLDQAASSFPKPKEVAEAMVAAVNEYGANPGRGGHRLATQARVTIDETRELLKTLFNAPSKKHVWFYQNATGALNQALFGFPFKEGDHVVSTALEHNSVRRPLEQLRERNGLVITYAQPDEEGIISPEKIAQACTDQTKAIVLSHGSNVTGAYLELEKIGEMAEAHGIVFIVDASQTAGVIDIDMKRDRISMLACAGHKGLLGPQGTGVLIVADDYGLTPLSYGGTGSYSELIDQPSQWPDRYESGTLNTPGIAGLKAGIEYVLDNGVAQIFAHEWALTERLLKGLGAQKVDVYGPPLPRKRLGVVSFRLSGFDSHEVALILDEHYQIAVRAGLHCAPMTHETLQTTDTGLIRVSVGPFNTEREVDQLLQAVMDIQQAFTS
MGSDKIHHHHHHMKAAIITKYKQITPMVTEVPVPTIAPTDVLVKIVAASVNPIDLKTKDGDLRLLLQYTMPLIMGSDFAGVITAVGDQVPDFKVGDAVYGRAPKDRIGTFAEFIAIDHQAIALKPANLNFEEAAAIPLVGLTSYQALHDIMNIQPGQKVFIPGGSGGIGIIAIQLAKYFGAYVATTTSAKHFDLVQSLGADKIIDYHQQDFTDVLSHYDAVLDTRGGQSLEAAFQIIKPGGQIVSIAGLPNARFGKDYGLPIWKQWLLGLATRKLSRLEQQAQATYSFLFMQPSGQQLVRLRQLIEQGVIKPVVDRIIPLTDINAALEYSHSGHTTGKIIISIQPN
MGSDKIHHHHHHMKAIGYQTAGAITAPNALENITLAEPTATGFDLLVEIKAISVNPVDTKIRASSSAPTGEYKIIGWDAVGVVKAVGEKVSLFNVGDEVWYAGDISRSGSYAEYQLVDERIVGHKPKSLTYTQAAALPLTGITAWEILFDRLALPQDGSATDARILIIGAAGGVGSIITQLAVKLTGAEVIGTASRPESAAWVHKLGANAVINHTKPLSKELANIGITDVTHVISLTQTDQHFDEIVQVLKPQGKLALIDDPKGPLDVMKLKRKSLSLHWELMFTRSLYQTEDMIAQHHLLNRLSALIDTGELQSTFGEHYGTINAQNLIKAHAQIESGKAIGKIVLEGFNQ
MGSDKIHHHHHHMKAYLVGLYTLTPTHPGSGTELGVVDQPIQRERHTGFPVIWGQSLKGVLRSYLKLVEKVDEEKINKIFGPPTEKAHEQAGLISVGDAKILFFPVRSLKGVYAYVTSPLVLNRFKRDLELAGVKNFQTEIPELTDTAIASEEITVDNKVILEEFAILIQKDDKGILESVVKAIEQAFGNEMAEKIKGRIAIIPDDVFRDLVELSTEIVARIRINAETGTVETGGLWYEEYIPSDTLFYSLILVTPRAKDNDMALIKEVLGKINGKYLQIGGNETVGKGFVKVTLKEVTNNGGTHAK
MGSDKIHHHHHHMKCSKCSAEAIYYAKYNGLYLCRDHFNEMIEGRVKKEIRKQVEFHGDDVTISVALSGGKDSSVTLFLLHKILGNRKNMKIKAFTVDEGIDGYRPSGLESAKRLCTSLGIDHETISFYDSYGLTLDSIVKTNPVKIPCAYCGPLRRKLINEMADKQDADYVALGLNLDDYSQSILMNVAKGDFDRFIRMSPQTDRKVGLVRRIAPLRTILEKEVVLYAVTNDIPFDSSWCPYYSRAQRNVFREVVNKLSEENPSTKFAILKFFDRVRENITTGHEEVKLKRCKICGAPTERDVCTACSSLQEVNEMMAEH
MGSDKIHHHHHHMKEILTVTELNSYIANLLDSDPFLGQLWLRGEISGFRLYQQSGHMYFTLKDEDSTISAVMFKSRARGLKFKPKDGMEVLLRASVSVFARQGKYQLYVEEMQPYGIGGLFLYLEELKKKLAAKGYFAPERKKAIPAFVQRVGIVTSQDGAALRDICRILKQRHPGVEVVLAHSSVQGSEAPGELAEGLRLLNSYAEVELIIIGRGGGSYEDLMAFNSELVVQAIYESNIPVISAVGHEVDFTLADLVADLRAATPSQAASLAVADMQALSRQLDNYQQRLLRAMQRKLLYYTEIIDRLMMKRIWKQPRSLLHMREELLSQLEKSLSRGMAEIFREKKMKLSMNMAALDSLSPLKIMERGYVLLQKEGRIIRDEQQVQIGDRLEVAMRHADLEIEVIKKERVKRWKS
MGSDKIHHHHHHMKEKVFRDPVHNYIPVEDELIYDLINSKEFQRLRRIKQLGSSSFTFHGAEHSRFSHCLGVYYLARRVTNIFDKKYSDIWNSNESLLTMTAALLHDIGHGAYSHTFERLFDTNHETITQQIILSPETEINTILRRVSPDFPDKVASVINHTYSNKQVEQLISSQIDVDRMDYLLRDSYFTGASYGEFDLTRVLRVIRPIENGIAFSRDGMHAVEDYIISRYQMYMQVYFHPASRAMEVLLQNLLKRAKYLYPKEKEFFTVTSPHLIPFFENRVTLEDYLSLDDGVMNTYFQTWMQSADKILSDLASRFINRKVFKSITFDEKDLSNLEKLRKIVKDLGFDPTYYTALHLNFDLPYDVYKPDVQNPRTQIEMLQEDGSIAELSTLSPLVHTLSGTTHGDRRFYFPKEMLIKDGLFVEAKEKFSHYIKNKHFYNLRE
MGSDKIHHHHHHMKELFEFNNVSFSYKDVKEQALVDLNFSIKKGSLTLITGSSGSGKSTLLKLMNGLIPRLYDGKLVGEILFENNSLQSLTQESISKNIGYVSQDPRGQFFTTNTTSELVFSMENFGFTKEHMDKRINELAELLDLSNILDKNIFSLSSGERQKISIGCSLSLNSKLIILDEPSSNLDFQATKKLADLLCDLKNKGFTIVIAEHRFYYLKELIDQVLFVKNRTVKTTTIQLLKTENNNALRKFDIFNSSIEVPYIEKASADVLKVEEITYENILKDINFDVKVGDVIGLVGKNGVGKTTLLRILMKIIRPTKGKIIENKKNLSSPFLVMQEMDYQFFTESVRSELALGNEIVSKDQQEKILKKMELYKMKDQLPFDLSGGEKQRLLVSIASLSKTNLFLFDEPTSGLDYINMERIADLIKDLKEKGAVVIATHDPEFLYKICNRIIYLKNGGIKKDIKLRVEDSTLIEQIFNDITK
MGSDKIHHHHHHMKELRIDPITNDVVIFATDRLKRPLDTADIPNEDEETNEYDEECPFCKGNEAHATDALFEIDSEEGWLVKSVYNKFPIIDDMARDVYGVHEVMIESDKHNRSFYNMSQKEFEDVFFMYRNRFRDLSKDDKVEYVSIFKNFLRKAGASLMHPHAQILSMSFIPPEITNELLVSKEYYDSNKSSLYDDLIENEISLDRRVVYNGEAFLVLIPYATKYSGEVRIIFKDKIEFGELNDNNIQELSTIFEKLFKKLYNINGYMPFNLCIHTHPTKIETKSYFNVHMHIIPRKYNFGGFELGTNMYVSSMSPEDLTKKLKID
MGSDKIHHHHHHMKFFKSLLIAPAALGLMAPVAVNADTAFSPTTKLKSSVNFTVGSNADSADGDELHSSYEMKWKATTSFTGEDKLVGKFEIGSGKTLAGGIDPQSSKGGGKTPTLTDLYYQFPLAEDLTISIGPKMDGDQGLAGTTSVYGEPVLLAADGYYALAGEGGTGATIAYAGDNGWNASLNMTAADGDDASKGIFGDDTEDYVTAQLGFDGDGFGGTFTYSDSSDTYTAYGIGAYFQPESIPVTVSAYFDSMDPEKGEEDENWVVGVEADAGPGTLGVGVGTQKGTDEKLTYEAWYDYKIADGVKITPMIWTSEDAGVGGEDLSGAALNVKYKF
MGSDKIHHHHHHMKFNIKSVKNYRLPMSWQHIQKGTMYCSLINEFFADWFQKVLGDQWLMIGGLSAELELNLPLRHKIILMPEMTKNPTALFPANQNVTEEISLIQADPLQLPFVQQSIHACVLANTLNFTQHSHQLLGEIARVLENDGYLFISLFNPYSPLIFKQNLNHKNQTALPFKQYFTWRILDWIKLLNFEILDQVNLSEKKQQDCFSPLTLIVAQKRTYPFPLYKIKNKIVPYQSFQFMGENTKNAT
MGSDKIHHHHHHMKGIEVKQVTKSFDKKMILNGIGMTIEPNKIYGLLGRNGAGKSTLLSLLVNRIAPDTGEIRLDNKVIRDNDEQLSKMFLMSEVDLYPKNLKVKDVFKWTKSFYGGFDEELAQDLCEKFGLQTNIIFNKLSTGYRTIMKLIVALAVPVEYVFLDEPILGLDAGHREIFYNALVETYAENPRTFVISTHLIEEIANLIEHVLVIDHGRLIVDDETEKVLGEAYVVSGPEDKVDEYTQGLNVIGSDKLARIKASYVFGSLDNKPISDLINIDQMDLQTLFVNLTNGGNENE

Source: the DeepSol protein solubility set
